Measured values published in patent US20260226180A1 (BIOCYTOGEN PHARMACEUTICALS BEIJING, published 2026).
Read-outs that look alike come from different tables or passages of the source.

T1: monkey (Macaca fascicularis) IL2RA expressed on CHO-S cells (CHO-S-fasIL2RA cells) (monkey (Macaca fascicularis), UniProt Q5MNY4 22-272)
T1 chain: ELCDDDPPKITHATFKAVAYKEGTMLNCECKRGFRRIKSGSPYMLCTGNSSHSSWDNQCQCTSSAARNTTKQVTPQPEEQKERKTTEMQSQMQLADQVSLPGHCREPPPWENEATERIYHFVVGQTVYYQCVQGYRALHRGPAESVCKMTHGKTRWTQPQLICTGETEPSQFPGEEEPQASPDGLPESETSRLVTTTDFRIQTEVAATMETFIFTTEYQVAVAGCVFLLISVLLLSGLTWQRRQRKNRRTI

T2: human IL2RA expressed on CHO-S cells (CHO-S-hIL2RA cells) (human, UniProt P01589 22-272)
T2 sequence: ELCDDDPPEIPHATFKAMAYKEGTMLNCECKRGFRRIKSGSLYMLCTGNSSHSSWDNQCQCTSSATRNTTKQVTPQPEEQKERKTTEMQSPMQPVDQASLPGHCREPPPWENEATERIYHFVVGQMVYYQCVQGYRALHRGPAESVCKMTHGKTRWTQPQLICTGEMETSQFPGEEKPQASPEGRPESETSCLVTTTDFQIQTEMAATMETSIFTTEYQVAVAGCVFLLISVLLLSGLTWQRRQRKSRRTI

T3: His-tagged human IL2RA protein (hIL2RA-his, ACROBiosystems Inc., Cat #: ILA-H52H9) (human, UniProt P01589 22-213, limits assumed)
T3 construct: Bought protein; the soluble protein is most likely only an extracellular part of it; not shown: His tag
T3 sequence: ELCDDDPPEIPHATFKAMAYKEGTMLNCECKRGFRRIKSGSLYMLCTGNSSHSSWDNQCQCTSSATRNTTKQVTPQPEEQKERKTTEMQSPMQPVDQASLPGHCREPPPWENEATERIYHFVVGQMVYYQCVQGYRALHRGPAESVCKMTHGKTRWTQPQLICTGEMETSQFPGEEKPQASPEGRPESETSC

T4: His-tagged recombinant monkey (Cynomolgus monkey, Macaca fascicularis) IL2RA protein (cynoIL2RA-his, Sino … (Cynomolgus monkey (Macaca fascicularis), UniProt Q5MNY4 22-213 (rhesus entry)))
T4 construct: Bought protein; the soluble protein is most likely only an extracellular part of it; not shown: His tag
T4 chain: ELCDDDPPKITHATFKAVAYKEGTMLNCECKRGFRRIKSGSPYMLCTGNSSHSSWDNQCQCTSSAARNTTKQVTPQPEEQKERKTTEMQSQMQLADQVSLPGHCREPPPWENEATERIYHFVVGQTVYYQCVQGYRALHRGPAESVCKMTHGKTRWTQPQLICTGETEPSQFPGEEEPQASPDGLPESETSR


Experiments:
[1] = molecular target: T1, monkey (Macaca fascicularis) IL2RA …; test: flow cytometry on CHO-S cells expressing the target, anti-human IgG Fc secondary
Procedure: (§1) CHO-S-hIL2RA cells or CHO-S-fasIL2RA cells were plated in a 96-well plate at a density of 2×10⁵ cells/well. Serially diluted purified anti-IL2RA antibodies (maximum concentration: 9 μg/mL, 2-fold dilutions, 11 gradients) were added to each well and were incubated at 4° C. for 30 minutes.
(§2) The cells were collected, and the mean fluorescence intensity (MFI) was determined. A fitting curve was obtained using Log(antibody concentration (μg/mL)) as the X-axis and mean MFI as the Y-axis.

[2] = molecular target: T2, human IL2RA expressed on CHO-S cells …; test: as above
Procedure: as §1, §2

[3] = molecular target: T3, His-tagged human IL2RA protein …; test: SPR (Biacore 8K), antibody captured on Protein A chip, His-tagged antigen as analyte, 1:1 fit;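 further: antibodies captured at about 150 RU, antigen injected as a titration series, dissociation phase recorded over 400 s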
Procedure: (§3) Purified anti-IL2RA antibodies were diluted to 2 g/mL and then injected into the Biacore™ 8K biosensor at 10 L/min for about 50 seconds to achieve a desired protein density (e.g., about 150 response units (RU)). […] Dissociation was monitored for 400 seconds. The chip was regenerated after the last injection of each titration with glycine (pH 2.0, 30 L/min for 30 seconds).

[4] = molecular target: T4, His-tagged recombinant monkey …; test: as above
Procedure: as §3

[5] = molecular target: T2, human IL2RA expressed on CHO-S cells …; test: flow cytometry blocking assay on CHO-S-hIL2RA cells; blocked ligand: biotinylated human IL-2 at 2.5 µg/mL, detected with APC streptavidin
Procedure: (§4) CHO-S-hIL2RA cells were seeded in a 96-well plate (cell density 2×10⁵ cells/well) and incubated at 37° C. overnight. […] The above 96-well plate was incubated at 4° C. for 20 minutes.
(§5) The mean fluorescence intensity (MFI) was determined. A fitting curve was obtained using Log(antibody concentration (μg/mL)) or antibody concentration (μg/mL) as the X-axis and Log(mean MFI) or MFI as the Y-axis.

[6] = molecular target: T2, human IL2RA expressed on CHO-S cells …; test: as above; remark: listed apart in the source
Procedure: as §4, §5

[7] = molecular target: T4, His-tagged recombinant monkey …; test: SPR (Biacore 8K), antibody captured on Protein A chip, His-tagged antigen as analyte; "-" means no binding
Procedure: as §3

Binder	EC50 [1]	EC50 [2]	Kd [3]	koff [3]	kon [3]	Kd [4]	koff [4]	kon [4]	IC50 (read off the curve) [5]	IC50 (read off the curve) [6]	binding result [7]
anti-IL2RA antibody 7B5 (antibody, V domains shown) VH: EVQLQQWGAGLLKPSETLSLTCAVYGGSFSGYYWNWIRQPPGKGLEWIGESDHSGSTHFNPSLKSRVTISLDTSKNQFSLKLNSVTAADTAVYFCARAPDYGDFDHWGQGILVTVSS VL: DIQMTQSPDSLAVSLGERATINCRSSQSVLHSSTNKRYLAWYQQKPRQPPKLLIYWTSTRESGVPDRFSGSGSGTDFTLTISSLQAEDVAVYFCQQYYSTPYTFGQGTKLEIK	0.435 µg/mL	0.411 µg/mL	6.35 nM	0.0143 s⁻¹	2.25e+06 M⁻¹ s⁻¹	24.6 nM	0.0258 s⁻¹	1.05e+06 M⁻¹ s⁻¹	–	–	–
anti-IL2RA antibody 11C3 (antibody, human IgG1, V domains shown) VH: QVQLVQSGAEVKKPGASVKVSCKASGYTFNSYYIHWVRQAPGQGLEWLGIINPTGGRTIYAQKFQGRVTMTRDTSTTTVDMELSSLRSEDTAVYYCARVPGYCKDTSCQDFYYYYGMDVWGQGSTVTVSS VL: not shown	0.111 µg/mL	0.099 µg/mL	0.266 nM	9.42e-05 s⁻¹	354000 M⁻¹ s⁻¹	0.528 nM	0.000166 s⁻¹	314000 M⁻¹ s⁻¹	–	–	–
anti-IL2RA antibody 11D2 (antibody, human IgG1, V domains shown) VH: QVQLVQSGGGVVQPGRSLRLSCAASGFTFTNYAIHWVRQAPGKGLEWVAVIWSDGDNKYYADSVKGRFTISRDNSKNTLYLQMNSLRAEDTAVYYCARTPWYCTSTNCYTGYYYYGMDVWGQGTTVTVSS VL: not shown	0.039 µg/mL	0.052 µg/mL	1.27 nM	0.000235 s⁻¹	185000 M⁻¹ s⁻¹	2.53 nM	0.000901 s⁻¹	356000 M⁻¹ s⁻¹	–	–	–
RG6292 analog (antibody, V domains shown, RG6292 is described as a human IgG1 monoclonal antibody) VH: QVQLVQSGAEVKKPGASVKVSCKASGYTFTSYYMHWVRQAPGQGLEWMGIINPSGGSTSYAQKFQGRVTMTRDTSTSTVYMELSSLRSEDTAVYYCARGGAEYIPAEYFQHWGQGTLVTVSS VL: EIVMTQSPATLSLSPGERATLSCRASQSVSSYLAWYQQKPGQAPRLLIYDASNRATGIPARFSGSGSGTDFTLTISSLEPEDFAVYYCQQRPFLPTFGGGTKVEIK	–	–	43.8 nM	0.00203 s⁻¹	46300 M⁻¹ s⁻¹	–	–	–	–	–	no binding (tested: up to 200 nM antigen)
anti-IL2RA antibody 14C2 (antibody, human IgG1, V domains shown) VH: QVQLVQSGGGVVQPGRSLRLSCAASGFTFSTYGMHWVRQAPGKGLEWVAVISYDGSDKIYADSVKGRFTISRDNSKNTLFLQMNSLRAEDTAVYYCATGPMENYYYYNMDVWGLGTTVTVSS VL: not shown	0.088 µg/mL	0.093 µg/mL	3.72 nM	0.000962 s⁻¹	258000 M⁻¹ s⁻¹	53.1 nM	0.0116 s⁻¹	218000 M⁻¹ s⁻¹	–	–	–
anti-IL2RA antibody 13F9 (antibody, human IgG1, V domains shown) VH: QVQLVQSGAEVKRPGASVKVSCKASGYTFTTYAIHWVRQAPGQRLEWMGWINADNGYTKYSQNFQGRVTITRDTSASTAYMDLSTLRSEDTALYYCARTPRYCTSTSCSTGYYYYGMDVWGQGTTVTVSS VL: not shown	0.275 µg/mL	0.326 µg/mL	0.655 nM	2.11e-05 s⁻¹	32300 M⁻¹ s⁻¹	11.8 nM	0.000447 s⁻¹	37800 M⁻¹ s⁻¹	–	–	–

More lines, main results first:

EC50 [1]	EC50 [2]	Kd [3]	koff [3]	kon [3]	Kd [4]	koff [4]	kon [4]	IC50 (read off the curve) [5]	IC50 (read off the curve) [6]	Binder	binding result [7]
–	–	–	–	–	–	–	–	~4 µg/mL	~0.6 µg/mL	Daclizumab analog (antibody, V domains shown, Daclizumab is described as a humanized monoclonal antibody) VH: QVQLVQSGAEVKKPGSSVKVSCKASGYTFTSYRMHWVRQAPGQGLEWIGYINPSTGYTEYNQKFKDKATITADESTNTAYMELSSLRSEDTAVYVCARGGGVFDYWGQGTLVTVSS VL: DIQMTQSPSTLSASVGDRVTITCSASSSISYMHWYQQKPGKAPKLLIYTTSNLASGVPARFSGSGSGTEFTLTISSLQPDDFATYYCHQRSTYPLTFGQGTKVEVK	–
0.466 µg/mL	0.47 µg/mL	5.14 nM	0.00043 s⁻¹	83800 M⁻¹ s⁻¹	271 nM	0.0193 s⁻¹	71400 M⁻¹ s⁻¹	–	–	anti-IL2RA antibody 5D9 (antibody, V domains shown, Variable regions were cloned onto a human IgG constant region; also called 5D9-IgG1) VH: EVQLVESGGGLVQPGGSLRLSCAASGFTVSSNYMSWVRQTPGKGLELVSFIYSGGITSYADSVRGRFTISRDNSKNTLYLQMNSLRAEDTAVYYCARDDYSNYFDYWGQGTLVTVSS VL: DIQMTQSPSSVSASVGDRVTITCRASQGISNWLAWYQQKPGKAPKLLIFAASSLQSGVPSRFSGSGSGTDFTLTISSLQPEDFATYYCQQAKSFPITFGQGTRLEIK	–
0.091 µg/mL	0.083 µg/mL	8.9 nM	0.00268 s⁻¹	301000 M⁻¹ s⁻¹	118 nM	0.0343 s⁻¹	291000 M⁻¹ s⁻¹	–	–	anti-IL2RA antibody 11C12 (antibody, human IgG1, V domains shown, also called 1IC12) VH: QVQLVQSGGGLVQPGGSLRLSCSASGLTFSSYGMHWVRQAPGKGLDYVSGITNNGGRTEYADSVKGRFTISRDNSKNTLYLQMSSLRTEDTAVYYCVKEDWNGQYYYYAMDVWGQGTTVTVSS VL: not shown	–
